{"source": "the nanobody polyreactivity screen of Harvey et al. (2022)", "data": [{"assay": "yeast display, Sf9 membrane polyspecificity reagent, FACS + sequencing; frameworks hold sequencing errors", "summary_of_the_method": "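Synthetic nanobody libraries on Saccharomyces cerevisiae BJ5465 were galactose-induced for 36–48 hours, stained 1 hour at 4 °C with 10% biotinylated, detergent-solubilized Sf9 membrane reagent and enriched on streptavidin microbeads. FACS then separated cells into low and high (top ~1%) gates by anti-HA (expression) and streptavidin (reagent binding) fluorescence. Genes were colony-PCR amplified, MiSeq 2 × 250 sequenced and CDR-length filtered. A clone's polyreactivity label is that of its gate of origin.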", "values": [{"sequence": "QVQHVESGGGLLQAGGSLRLTCAASGSTFGTYAMGWYRQAPGKERELVATISIGGITYYADSVKGRFTISRDNAKNTVYLQLNSLKPEDTAVYYCAKDVNDATSRSDPSGDDYWGQGTQVTVSS", "polyreactivity (PSR sort gate)": "low polyreactivity"}, {"sequence": "QVQHVESGGGLLQPGGSLRLSCAASGSTFRTNAMGWYRQAPGKERELVAAISRSTGSTYYADSVKGRFTISRDNAKNTVYLQMNSLKTVDSAVFYCNALSGFWGQGTQVTVSS", "polyreactivity (PSR sort gate)": "low polyreactivity"}, {"sequence": "QVQHVESGGGLVQAGGSHRLSSAASGSTFIPNAMRWYRQAPGKERELVAAISGSGGRTYYADSVKGRFTISRDNAKNTVYLQMNSLKPEDTAVYYCAASGTSRSRKSYYWGQGTQVTVSS", "polyreactivity (PSR sort gate)": "high polyreactivity"}, {"sequence": "QVQHVESGGGLVQAGGSLRLICAASGIIFDYNAMGWYRQAPGKERELVATNNDSGGSTSYAYSVKGRFTISRDKAKNTVYLQMNCLKPDDTAVYYCAVLPVYWYWRNYVYLSGYDYWGQGSQVTVSS", "polyreactivity (PSR sort gate)": "low polyreactivity"}, {"sequence": "QVQHVESGGGLVQAGGSLRLRCAASGFTFRRYALGWYRQAPGKERELVAAISGSGGSTYYADSVKGRFTISRDKAKNTVYLQMNSLKPEDTAVYYCNALLRAIAEYDYWGQGTQVTVSS", "polyreactivity (PSR sort gate)": "high polyreactivity"}, {"sequence": "QVQHVESGGGLVQAGGSLRLRCAASGSIFYINAMGWYRQAPGQERELVAAITSDGSTYYADSVKGRFTISGDNAKNSVYLQINSLKPEDTAVYYCAADLTSDQYVYYWYWFYSWGQGTQVTVSS", "polyreactivity (PSR sort gate)": "low polyreactivity"}, {"sequence": "QVQHVESGGGLVQAGGSLRLSCAASGFIFAWYTMGWDRQAPGKERELVAAISRSGVRTYYADSVKGRFTISRDNAKNTVYLQMNSLKPEDTAVYYCAVDWYPTMDYWGQGTQVTLSS", "polyreactivity (PSR sort gate)": "high polyreactivity"}, {"sequence": "QVQHVESGGGLVQAGGSLRLSCAASGFIFNRNAMGWYRQAPGKERELVAAISTRGSTYYADSVKGRFTISRDNAKNTDYLQMNSLKPEDTAVYYCAKAVYVDQGTYYYCGQGTQVTVSS", "polyreactivity (PSR sort gate)": "low polyreactivity"}, {"sequence": "QVQHVESGGGLVQAGGSLRLSCAASGFIFTYYGMGWYRQAPGKERELVAAITWSGASTYYADSVKGRFTISRDNAKNTVYLQMNSLKPEDSAVYYCNAVWDSGIVQSDETVYKYDYWGQGTQVTVSS", "polyreactivity (PSR sort gate)": "low polyreactivity"}, {"sequence": "QVQHVESGGGLVQAGGSLRLSCAASGFIFVSYTMGWYRHAPGKEWELVATITVSDGSTYYADSVKGRFTISRDNAKNTVYLQMNSLKPEDTAVYYCNKDKVVVRYDYWGQGTQVTVSS", "polyreactivity (PSR sort gate)": "low polyreactivity"}, {"sequence": "QVQHVESGGGLVQAGGSLRLSCAASGFTFGYYAMGWYRQAPGKESELVAAIRSSGGSTYYADSVKGRFTISRDYAKNTDYLQMNSLKPEDSAVYYCAVLYGYLSSSRYGYDSWGKGTQVTVSS", "polyreactivity (PSR sort gate)": "high polyreactivity"}, {"sequence": "QVQHVESGGGLVQAGGSLRLSCAASGFTFKRNAMGWYRPAPGKERELVAAITWSGGSTYYADSVKGRFTISRDNAKNTVYLQMNSLKPEDTEVYYCAALYRSRYYSGDYWGQGTQVTVSS", "polyreactivity (PSR sort gate)": "high polyreactivity"}, {"sequence": "QVQHVESGGGLVQAGGSLRLSCAASGFTFRWYTMGWYRQAPGKERELVASIRYGGGSTYYADSVKGRFTISRDNAKNTVYLQMNSLKPEDTAVYYCAAESAWTSPYDYWGQGTQVTVSS", "polyreactivity (PSR sort gate)": "high polyreactivity"}, {"sequence": "QVQHVESGGGLVQAGGSLRLSCAASGFTFRYNAMGWYRQAPGKKGSWVAAISRTGGSTYYADSVKGRFTISRDNAKNTVYLQMNSLKPEDTAVYYCARAPEGTGGKYGYWGQGTQVTVSS", "polyreactivity (PSR sort gate)": "high polyreactivity"}, {"sequence": "QVQHVESGGGLVQAGGSLRLSCAASGFTIVYYGMGRYRQAPGKERELVAAITYSGGRTYYADSVKGRFTISRDNAKNTVYLQMNSLKPEDTAVYYCNAYTQQYRSYGYWGQGTQVTVSS", "polyreactivity (PSR sort gate)": "high polyreactivity"}, {"sequence": "QVQHVESGGGLVQAGGSLRLSCAASGGIFYYYAMGWYRPAPGKERELVATISNGGSTYYADSVKGRFTISRDNAKNTVYLQMNSLNPEDTAVYYCAARDGRQPRGYRLVTYYAPMYYWGQGTQVTVSS", "polyreactivity (PSR sort gate)": "high polyreactivity"}, {"sequence": "QVQHVESGGGLVQAGGSLRLSCAASGGTFGDYAMGWSRQAPGKEREFVASITRSVSNTYYADSVKGRFTISRDNAKNTVYLQMNSLKPEDTAVYYCNADRWYPWRYIMDYWGQGTQVTVSS", "polyreactivity (PSR sort gate)": "low polyreactivity"}, {"sequence": "QVQHVESGGGLVQAGGSLRLSCAASGGTFRPYARGWSIQAPGKERELVAAISYTGSTYYADSVKGRFTISRDNAKYTVYLQMNSLKPEDTAVYYCAKDFWYPPRFDYWGQGTQVTVSS", "polyreactivity (PSR sort gate)": "low polyreactivity"}, {"sequence": "QVQHVESGGGLVQAGGSLRLSCAASGGTFYTYAMGWYRQAPGKERELVAAITSRGSSTYYADSVKGRFTISRDNANNTVYLQMNSLKPEDTAVYYCARRSQRGMYSMYYWGQGTQVTVSS", "polyreactivity (PSR sort gate)": "low polyreactivity"}, {"sequence": "QVQHVESGGGLVQAGGSLRLSCAASGIFVDNAMGWYRQARGKERELVAAITSSTDSTYYADSVKGRFPISRDNAKNTVYLQINSLNPEDSAVYYCAVARPGGFYFLVHYGYGYWGQGTQVTVSS", "polyreactivity (PSR sort gate)": "low polyreactivity"}, {"sequence": "QVQHVESGGGLVQAGGSLRLSCAASGIIFDGNVMGWDRQAPGKEREFVASISISGGSTSYADSVKGRFTISRDNAKNTVYLQMNSLKPEDTAVYYCNTDVGYGRVCRWRYHGDYWGQGTQVTVSS", "polyreactivity (PSR sort gate)": "low polyreactivity"}, {"sequence": "QVQHVESGGGLVQAGGSLRLSCAASGIIFIVYAMGWYRQAPGKERELVAAISNGGSTYYADSVKGRFTISRDNAKNTVYLQMNSLKPEDTAVYYCAAGGALASQWSKKLYDYWGQGTQVTVSS", "polyreactivity (PSR sort gate)": "low polyreactivity"}, {"sequence": "QVQHVESGGGLVQAGGSLRLSCAASGIIITGNAMGWYRQAPGKERELVAAISTSGGRTYYADSVKGRFTISRDNAKNTVYLQMNSLKPEDTAVYYCAADDLSGTELYYWGQGTQVTVSS", "polyreactivity (PSR sort gate)": "high polyreactivity"}, {"sequence": "QVQHVESGGGLVQAGGSLRLSCAASGLIFARNAMVWYRQAPGKERELVAAISSSGNTYADSVKGRFTISRDNAKNTVYLQMNSLKPEDTAVFYCAADYVRWGQRKRSRYYYWGHGTQVTVSS", "polyreactivity (PSR sort gate)": "high polyreactivity"}, {"sequence": "QVQHVESGGGLVQAGGSLRLSCAASGLIFSWTAMGWYRQAPGKERELVASISYSGGRTYYADSVKGRFTISRDNAKNTVYLQMNSLKPEDTAVYYCAADTNATTDPEMDYWGQGTQVTVSS", "polyreactivity (PSR sort gate)": "low polyreactivity"}, {"sequence": "QVQHVESGGGLVQAGGSLRLSCAASGLTFANYVMGWYRQAPGKERELVASISISGGSTYYADSVKGRFTISRDNAKNTVYLQMNSLKPEDTAVYYCAASFVSSYQYDYWGQGTQVTVSS", "polyreactivity (PSR sort gate)": "high polyreactivity"}, {"sequence": "QVQHVESGGGLVQAGGSLRLSCAASGLTFLSNAMGWYRPARGNEWELVAAINSGARKFYADSVKGRFTISRDNAKNTVYLQMNCLKPEDTAVYYCNADYGKPSYYDDGDYWGEGTQVTVSS", "polyreactivity (PSR sort gate)": "low polyreactivity"}, {"sequence": "QVQHVESGGGLVQAGGSLRLSCAASGLTLKRNAMGWYRQAPGKERELVAAISGRGGSTYYADSVKGRFTISRDNAKNTVYLQMNSLKPEDTAVYYCAATVQYSPIYDYWGQGTQVTVSS", "polyreactivity (PSR sort gate)": "high polyreactivity"}, {"sequence": "QVQHVESGGGLVQAGGSLRLSCAASGNIFDRNAMGWDRQARGKERELVAAISRSGGRTYYADSVKGRFTISRDHAKNTVYLQMNSLKPEDTAVYYCNRRYRKYSSAKYDYWGQGTQVTVSS", "polyreactivity (PSR sort gate)": "high polyreactivity"}, {"sequence": "QVQHVESGGGLVQAGGSLRLSCAASGNIFTRNPMGWYRQAPGKERELVAAINYSGGSTYYADSVKGRFTISRDNAKNTVYLQMNSLKPEDTAVYYCAKDYAPSTDSYDYWGQGTQVTVSS", "polyreactivity (PSR sort gate)": "low polyreactivity"}, {"sequence": "QVQHVESGGGLVQAGGSLRLSCAASGRIFGKNDMGWYRQAPGNERELVAAITTSGGSTYYADSVKGRFTISRYNAKNTVYLQMNSLKPEDTAVYYCNAAFQNKGYIRKYKYDYWGQGTQVTVSS", "polyreactivity (PSR sort gate)": "low polyreactivity"}, {"sequence": "QVQHVESGGGLVQAGGSLRLSCAASGRIFGTYAMGWYRQAPGKERELVAAISWSGGRTYYADSVKGRFTISRDNAKNTVYLQMNSLKPEHTAVYYCAARGVPRDGRHHYRYDYWGQGSQVTVSS", "polyreactivity (PSR sort gate)": "high polyreactivity"}, {"sequence": "QVQHVESGGGLVQAGGSLRLSCAASGRIFGYYAMGWYRQAHGKQSELVAAITSGGRTNYADSVKGRFTISRDNAKNTVYLQMNSLKPEDTAVYYCAKEYPRYSSPYDYWGQGTQVTVSS", "polyreactivity (PSR sort gate)": "low polyreactivity"}, {"sequence": "QVQHVESGGGLVQAGGSLRLSCAASGRIFHRNAMGWYRKAPGKERELVAAISYRSGSTYYADSVKGRFTISRDNEKYTVYLQMNSLKPEDTAVYYCAKVRHIRFHYYYGYQSYYYWGQGTQVTLSS", "polyreactivity (PSR sort gate)": "high polyreactivity"}, {"sequence": "QVQHVESGGGLVQAGGSLRLSCAASGRIFVPYGMGWYRQAPGKERELVAAISLRGGTTYYADSVKGRFTISRDNAKNTVYLQMNSLKPEDTAVYYCAARGYVSVWRPYHWFVAGDYWGQGTQVTVSS", "polyreactivity (PSR sort gate)": "high polyreactivity"}, {"sequence": "QVQHVESGGGLVQAGGSLRLSCAASGRIFVYYALGWYRQAPGKERELVASISYSGASTYYADSVKGRFTISRDNAKNTVYLQMNSLKPEDTAVYYCNTDGDDFFHVIYDYWGQGTQVTVSS", "polyreactivity (PSR sort gate)": "low polyreactivity"}, {"sequence": "QVQHVESGGGLVQAGGSLRLSCAASGRIFYAYAMGWYRQAPGKERELVASISGGGSTDYADSVKGRFTISRDNAKNTVYLQMNSLKPEDTGVYYCAAQYYLYRSRFDYWGQGTQVTVSS", "polyreactivity (PSR sort gate)": "high polyreactivity"}, {"sequence": "QVQHVESGGGLVQAGGSLRLSCAASGRTFAKYAMRWSRQAPGKERELVAAIRWSGGSTYYADSVKGRFTISRDNAKNTVYLQMNSLKPEDTAVYYCAARPALWGRYRGYDYWGQGTQVTVSS", "polyreactivity (PSR sort gate)": "high polyreactivity"}, {"sequence": "QVQHVESGGGLVQAGGSLRLSCAASGRTFALNAMGWYRQAPGKERELVAAISWSSGRTYYADSVKGRFTISRDNAKNTVYLQMNSLKPEDTAVYYCAALVAHKGDYWGQGTQVTVSS", "polyreactivity (PSR sort gate)": "high polyreactivity"}, {"sequence": "QVQHVESGGGLVQAGGSLRLSCAASGRTFDRNAMGWYRQPPGKERELVAGITRSGDSTYADSVKVRFTISRDNAKNTVYLQMNSLKPVDTAVYYCNKEGTIGGTRGYWGQGTQVTVSS", "polyreactivity (PSR sort gate)": "low polyreactivity"}]}]}
